{"source": "paper PMC8184817", "about": "“Transmission of light signals from the light-oxygen-voltage core via the hydrophobic region of the β-sheet surface in aureochrome-1” (Scientific Reports, 2021)", "key": {"[1]": {"biological_target": "the molecule itself", "assay": "SEC; light (L) state: 8 or 50 µM protein illuminated 2 min with blue light, column under continuous LED irradiation; Superdex 75, 400 mM NaCl, 20 mM Tris-HCl pH 7.0, 25 ± 1 °C, 0.5 mL/min; monomer to dimer"}, "[2]": {"biological_target": "the molecule itself", "assay": "SEC; dark (D) state: 8 or 50 µM protein incubated 20 min at 25 °C in the dark; Superdex 75 column, 400 mM NaCl, 20 mM Tris-HCl pH 7.0, 25 ± 1 °C, 0.5 mL/min; monomer to dimer"}, "[3]": {"biological_target": "the molecule itself", "assay": "dynamic light scattering (DLS); light (L) state: immediately after 1 min of blue light, 30-60 µM protein, 25 °C, hydrodynamic radius extrapolated to 0 µM protein; monomer to dimer"}, "[4]": {"biological_target": "the molecule itself", "assay": "dynamic light scattering (DLS); dark (D) state: 30-60 µM protein, 25 °C, hydrodynamic radius extrapolated to 0 µM protein; monomer to dimer"}}, "data": [{"protein": "Photozipper (PZ), N-terminally truncated aureochrome-1 of Vaucheria frigida, wild type (domain or fragment, UniProt A8QW55 113-348, looked up, aureochrome-1 of Vaucheria frigida (VfAUREO1), G113-K348 with C162S and C182S, encoded by the synthetic gene opZL; holds the bZIP and LOV domains; in the light (L) state FMN forms a covalent adduct with a conserved cysteine; also called wtPZ; source: recombinant protein) GSISSELTEAQKVERRERNREHAKRSRVRKKFLLESLQQSVNELNHENNSLKESIREHLGPRGDSLIAQSSPEADTLLTDNPSKANRILEDPDYSLVKALQMAQQNFVITDASLPDNPIVYASRGFLTLTGYSLDQILGRNCRFLQGPETDPRAVDKIRNAITKGVDTSVCLLNYRQDGTTFWNLFFVAGLRDSKGNIVNYVGVQSKVSEDYAKLLVNEQNIEYKGVRTSNMLRRK", "values": [{"measurement": "binding result", "setting": "[1]", "value": "binds"}]}, {"protein": "Photozipper (PZ) V314A mutant (domain or fragment, Vaucheria frigida, UniProt A8QW55 113-348, looked up, aureochrome-1 of Vaucheria frigida (VfAUREO1), G113-K348 with C162S and C182S (opZL gene), plus V314A; also called β-sheet mutant) GSISSELTEAQKVERRERNREHAKRSRVRKKFLLESLQQSVNELNHENNSLKESIREHLGPRGDSLIAQSSPEADTLLTDNPSKANRILEDPDYSLVKALQMAQQNFVITDASLPDNPIVYASRGFLTLTGYSLDQILGRNCRFLQGPETDPRAVDKIRNAITKGVDTSVCLLNYRQDGTTFWNLFFVAGLRDSKGNIVNYAGVQSKVSEDYAKLLVNEQNIEYKGVRTSNMLRRK", "values": [{"measurement": "binding result", "setting": "[1]", "value": "binds"}]}, {"protein": "Photozipper (PZ) V316A mutant (domain or fragment, Vaucheria frigida, UniProt A8QW55 113-348, looked up, aureochrome-1 of Vaucheria frigida (VfAUREO1), G113-K348 with C162S and C182S (opZL gene), plus V316A; also called β-sheet mutant) GSISSELTEAQKVERRERNREHAKRSRVRKKFLLESLQQSVNELNHENNSLKESIREHLGPRGDSLIAQSSPEADTLLTDNPSKANRILEDPDYSLVKALQMAQQNFVITDASLPDNPIVYASRGFLTLTGYSLDQILGRNCRFLQGPETDPRAVDKIRNAITKGVDTSVCLLNYRQDGTTFWNLFFVAGLRDSKGNIVNYVGAQSKVSEDYAKLLVNEQNIEYKGVRTSNMLRRK", "values": [{"measurement": "binding result", "setting": "[2]", "value": "binds"}]}, {"protein": "Photozipper (PZ) V314I mutant (domain or fragment, Vaucheria frigida, UniProt A8QW55 113-348, looked up, aureochrome-1 of Vaucheria frigida (VfAUREO1), G113-K348 with C162S and C182S (opZL gene), plus V314I; also called β-sheet mutant) GSISSELTEAQKVERRERNREHAKRSRVRKKFLLESLQQSVNELNHENNSLKESIREHLGPRGDSLIAQSSPEADTLLTDNPSKANRILEDPDYSLVKALQMAQQNFVITDASLPDNPIVYASRGFLTLTGYSLDQILGRNCRFLQGPETDPRAVDKIRNAITKGVDTSVCLLNYRQDGTTFWNLFFVAGLRDSKGNIVNYIGVQSKVSEDYAKLLVNEQNIEYKGVRTSNMLRRK", "values": [{"measurement": "stoichiometry N", "setting": "[2]", "value": 2}]}, {"protein": "Photozipper (PZ) L201A mutant (domain or fragment, Vaucheria frigida, UniProt A8QW55 113-348, looked up, aureochrome-1 of Vaucheria frigida (VfAUREO1), G113-K348 with C162S and C182S (opZL gene), plus L201A; also called A'α mutant) GSISSELTEAQKVERRERNREHAKRSRVRKKFLLESLQQSVNELNHENNSLKESIREHLGPRGDSLIAQSSPEADTLLTDNPSKANRIAEDPDYSLVKALQMAQQNFVITDASLPDNPIVYASRGFLTLTGYSLDQILGRNCRFLQGPETDPRAVDKIRNAITKGVDTSVCLLNYRQDGTTFWNLFFVAGLRDSKGNIVNYVGVQSKVSEDYAKLLVNEQNIEYKGVRTSNMLRRK", "values": [{"measurement": "binding result", "setting": "[2]", "value": "binds"}]}, {"protein": "Photozipper (PZ) L208A mutant (domain or fragment, Vaucheria frigida, UniProt A8QW55 113-348, looked up, aureochrome-1 of Vaucheria frigida (VfAUREO1), G113-K348 with C162S and C182S (opZL gene), plus L208A; also called L208L (as printed once); A'α mutant) GSISSELTEAQKVERRERNREHAKRSRVRKKFLLESLQQSVNELNHENNSLKESIREHLGPRGDSLIAQSSPEADTLLTDNPSKANRILEDPDYSAVKALQMAQQNFVITDASLPDNPIVYASRGFLTLTGYSLDQILGRNCRFLQGPETDPRAVDKIRNAITKGVDTSVCLLNYRQDGTTFWNLFFVAGLRDSKGNIVNYVGVQSKVSEDYAKLLVNEQNIEYKGVRTSNMLRRK", "values": [{"measurement": "binding result", "setting": "[2]", "value": "binds"}]}, {"protein": "Photozipper (PZ) L201A/L208A/L212A triple mutant (domain or fragment, Vaucheria frigida, UniProt A8QW55 113-348, looked up, aureochrome-1 of Vaucheria frigida (VfAUREO1), G113-K348 with C162S and C182S (opZL gene), plus L201A, L208A and L212A; also called A'α mutant) GSISSELTEAQKVERRERNREHAKRSRVRKKFLLESLQQSVNELNHENNSLKESIREHLGPRGDSLIAQSSPEADTLLTDNPSKANRIAEDPDYSAVKAAQMAQQNFVITDASLPDNPIVYASRGFLTLTGYSLDQILGRNCRFLQGPETDPRAVDKIRNAITKGVDTSVCLLNYRQDGTTFWNLFFVAGLRDSKGNIVNYVGVQSKVSEDYAKLLVNEQNIEYKGVRTSNMLRRK", "values": [{"measurement": "binding result", "setting": "[2]", "value": "binds"}]}, {"protein": "Photozipper (PZ) Q216A mutant (domain or fragment, Vaucheria frigida, UniProt A8QW55 113-348, looked up, aureochrome-1 of Vaucheria frigida (VfAUREO1), G113-K348 with C162S and C182S (opZL gene), plus Q216A; also called hinge mutant) GSISSELTEAQKVERRERNREHAKRSRVRKKFLLESLQQSVNELNHENNSLKESIREHLGPRGDSLIAQSSPEADTLLTDNPSKANRILEDPDYSLVKALQMAAQNFVITDASLPDNPIVYASRGFLTLTGYSLDQILGRNCRFLQGPETDPRAVDKIRNAITKGVDTSVCLLNYRQDGTTFWNLFFVAGLRDSKGNIVNYVGVQSKVSEDYAKLLVNEQNIEYKGVRTSNMLRRK", "values": [{"measurement": "binding result", "setting": "[3]", "value": "binds"}]}, {"protein": "Photozipper (PZ) Q217A mutant (domain or fragment, Vaucheria frigida, UniProt A8QW55 113-348, looked up, aureochrome-1 of Vaucheria frigida (VfAUREO1), G113-K348 with C162S and C182S (opZL gene), plus Q217A; also called hinge mutant) GSISSELTEAQKVERRERNREHAKRSRVRKKFLLESLQQSVNELNHENNSLKESIREHLGPRGDSLIAQSSPEADTLLTDNPSKANRILEDPDYSLVKALQMAQANFVITDASLPDNPIVYASRGFLTLTGYSLDQILGRNCRFLQGPETDPRAVDKIRNAITKGVDTSVCLLNYRQDGTTFWNLFFVAGLRDSKGNIVNYVGVQSKVSEDYAKLLVNEQNIEYKGVRTSNMLRRK", "values": [{"measurement": "binding result", "setting": "[3]", "value": "binds"}]}, {"protein": "Photozipper (PZ) N218A mutant (domain or fragment, Vaucheria frigida, UniProt A8QW55 113-348, looked up, aureochrome-1 of Vaucheria frigida (VfAUREO1), G113-K348 with C162S and C182S (opZL gene), plus N218A; also called hinge mutant) GSISSELTEAQKVERRERNREHAKRSRVRKKFLLESLQQSVNELNHENNSLKESIREHLGPRGDSLIAQSSPEADTLLTDNPSKANRILEDPDYSLVKALQMAQQAFVITDASLPDNPIVYASRGFLTLTGYSLDQILGRNCRFLQGPETDPRAVDKIRNAITKGVDTSVCLLNYRQDGTTFWNLFFVAGLRDSKGNIVNYVGVQSKVSEDYAKLLVNEQNIEYKGVRTSNMLRRK", "values": [{"measurement": "binding result", "setting": "[3]", "value": "binds"}]}, {"protein": "Photozipper (PZ) F299V mutant (domain or fragment, Vaucheria frigida, UniProt A8QW55 113-348, looked up, aureochrome-1 of Vaucheria frigida (VfAUREO1), G113-K348 with C162S and C182S (opZL gene), plus F299V; also called β-sheet mutant) GSISSELTEAQKVERRERNREHAKRSRVRKKFLLESLQQSVNELNHENNSLKESIREHLGPRGDSLIAQSSPEADTLLTDNPSKANRILEDPDYSLVKALQMAQQNFVITDASLPDNPIVYASRGFLTLTGYSLDQILGRNCRFLQGPETDPRAVDKIRNAITKGVDTSVCLLNYRQDGTTFWNLFVVAGLRDSKGNIVNYVGVQSKVSEDYAKLLVNEQNIEYKGVRTSNMLRRK", "values": [{"measurement": "binding result", "setting": "[3]", "value": "binds"}]}, {"protein": "Photozipper (PZ) L303A mutant (domain or fragment, Vaucheria frigida, UniProt A8QW55 113-348, looked up, aureochrome-1 of Vaucheria frigida (VfAUREO1), G113-K348 with C162S and C182S (opZL gene), plus L303A; also called β-sheet mutant) GSISSELTEAQKVERRERNREHAKRSRVRKKFLLESLQQSVNELNHENNSLKESIREHLGPRGDSLIAQSSPEADTLLTDNPSKANRILEDPDYSLVKALQMAQQNFVITDASLPDNPIVYASRGFLTLTGYSLDQILGRNCRFLQGPETDPRAVDKIRNAITKGVDTSVCLLNYRQDGTTFWNLFFVAGARDSKGNIVNYVGVQSKVSEDYAKLLVNEQNIEYKGVRTSNMLRRK", "values": [{"measurement": "binding result", "setting": "[3]", "value": "binds"}]}, {"protein": "Photozipper (PZ) L212A mutant (domain or fragment, Vaucheria frigida, UniProt A8QW55 113-348, looked up, aureochrome-1 of Vaucheria frigida (VfAUREO1), G113-K348 with C162S and C182S (opZL gene), plus L212A; also called A'α mutant) GSISSELTEAQKVERRERNREHAKRSRVRKKFLLESLQQSVNELNHENNSLKESIREHLGPRGDSLIAQSSPEADTLLTDNPSKANRILEDPDYSLVKAAQMAQQNFVITDASLPDNPIVYASRGFLTLTGYSLDQILGRNCRFLQGPETDPRAVDKIRNAITKGVDTSVCLLNYRQDGTTFWNLFFVAGLRDSKGNIVNYVGVQSKVSEDYAKLLVNEQNIEYKGVRTSNMLRRK", "values": [{"measurement": "binding result", "setting": "[4]", "value": "binds"}]}, {"protein": "Photozipper (PZ) F219V mutant (domain or fragment, Vaucheria frigida, UniProt A8QW55 113-348, looked up, aureochrome-1 of Vaucheria frigida (VfAUREO1), G113-K348 with C162S and C182S (opZL gene), plus F219V; also called β-sheet mutant) GSISSELTEAQKVERRERNREHAKRSRVRKKFLLESLQQSVNELNHENNSLKESIREHLGPRGDSLIAQSSPEADTLLTDNPSKANRILEDPDYSLVKALQMAQQNVVITDASLPDNPIVYASRGFLTLTGYSLDQILGRNCRFLQGPETDPRAVDKIRNAITKGVDTSVCLLNYRQDGTTFWNLFFVAGLRDSKGNIVNYVGVQSKVSEDYAKLLVNEQNIEYKGVRTSNMLRRK", "values": [{"measurement": "stoichiometry N", "setting": "[2]", "value": 2}]}]}
